Measurements as given in US11278600B2, “Human alpha-galactosidase variants” (Codexis, Inc., priority 2014, dated 2022).

Assays:
Assay type in all cases: biochemical
[1] = HTP-analysis of yeast culture supernatants, no challenge (MUGal hydrolysis); conditions: activity of the variant/activity of Rd4BB (SEQ ID NO: 15)
Summary of the method: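 Activity read as 4-methylumbelliferyl α-D-galactopyranoside hydrolysis: fluorescence (355/448 nm) after sodium carbonate stop, following 30-180 min at 37° C with 2 mM MUGal stock at pH 4.6–4.8. Enzyme source is unchallenged culture supernatant of INVSc1 yeast expressing GLA variants, grown 66-84 h at 30° C.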

[2] = HTP-analysis of supernatants pretreated with acid (MUGal hydrolysis); conditions: activity of the variant/activity of Rd4BB (SEQ ID NO: 15); challenge at pH 3.7
Summary of the method: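 Supernatants from INVSc1 yeast secreting GLA variants were challenged at 37° C. for 1-3 h in McIlvaine buffer at pH 3.3-4.3. Residual activity was then measured on 4 mM MUGal substrate stock at pH 4.8 with citrate buffer pH 4.3, over 30-180 min at 37° C. Reactions were quenched with sodium carbonate and read by fluorescence (Ex 355/Em 448 nm).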

[3] = HTP-analysis of supernatants pretreated with base (MUGal hydrolysis); conditions: activity of the variant/activity of Rd4BB (SEQ ID NO: 15); challenge at pH 9.65
Summary of the method: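 Supernatants from INVSc1 yeast expressing GLA variants (SD-Ura, 66-84 h, 30° C) were mixed with McIlvaine buffer pH 7.0-8.2 or 200 mM sodium bicarbonate pH 9.1-9.7 and held 1-18 h at 37° C. Residual activity was then measured on MUGal at pH 4.8/4.3, 37° C, 30-180 min, by fluorescence (Ex 355/Em 448 nm).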

Molecule | Relative Activity of GLA Variants After No Challenge (NC) [1] | Relative Activity of GLA Variants After Challenge at pH 3.7 [2] | Relative Activity of GLA Variants After Challenge at pH 9.65 [3]
412 (protein, Synthetic Polypeptide sequence of Variant No. 412 of mature Human GLA) LDNGLARTPTMGWLHWERFMCNLDCQEEPDSCISEKLFMEMAERMVSEGWKDAGYEYLCIDDCWMAPQRDSEGRLQADPQRFPHGIRQLANYVHSKGLKLGIYADVGNKTCAGFPGSFGYYDIDAQTFADWGVDLLKFDGCYCDSLENLADGYKHMSLALNRTGRHIVYSCEWPLYMWPFQKPNYTEIRQYCNHWRNFADIDDSWKSIKSILDWTSRNQERIVDVAGPGGWNDPDMLVIGNFGLSWDQQVTQMALWAIMAAPLFMSNDLRHISPQAKALLQDKDVIAINQDPLGKQGYQLRKGDNFEVWERPLSGDAWAVAIINRQEIGGPRSYTIPVASLGKGVACNPACFITQLLPVKRQLGFYNWTSRLKSHINPTGTVLLQLENTMQMSLKDLL | + (0.5 to 1.5 relative activity over Rd4BB (SEQ ID NO: 15)) | ++ (>1.5 to 2.5 relative activity over Rd4BB (SEQ ID NO: 15)) | + (0.5 to 1.5 relative activity over Rd4BB (SEQ ID NO: 15))
414 (protein, Synthetic Polypeptide sequence of Variant No. 414 of mature Human GLA) LDNGLARTPTMGWLHWERFMCNLDCQEEPDSCISEKLFMEMAERMVSEGWKDAGYEYLCIDDCWMAPQRDSEGRLQADPQRFPHGIRQLANYVHSKGLKLGIYADVGNKTCAGFPGSFGYYDIDAQTFADWGVDLLKFDGCYCDSLENLADGYKHMSQALNRTGRSIVYSCEWPLYMWPFQKPNYTEIRQYCNHWRNFADIDDSWKSIKSILDWTSRNQERIVDVAGPGGWNDPDMLVIGNFGLSWDQQVTQMALWAIMAAPLFMSNDLRHISPQAKALLQDKDVIAINQDPLGKQGYQLRKGDNFEVWERPLSGDAWAVAIINRQEIGGPRSYTIPVASLGKGVACNPACFITQLLPVKRQLGFYNWTSRLKSHINPTGTVLLQLENTMQMSLKDLL | + (0.5 to 1.5 relative activity over Rd4BB (SEQ ID NO: 15)) | + (0.5 to 1.5 relative activity over Rd4BB (SEQ ID NO: 15)) | + (0.5 to 1.5 relative activity over Rd4BB (SEQ ID NO: 15))
415 (protein, Synthetic Polypeptide sequence of Variant No. 415 of mature Human GLA) LDNGLARTPTMGWLHWERFMCNLDCQEEPDSCISEKLFMEMAERMVSEGWKDAGYEYLCIDDCWMAPQRDSEGRLQADPQRFPHGIRQLANYVHSKGLKLGIYADVGNKTCAGFPGSFGYYDIDAQTFADWGVDLLKFDGCYCDSLENLADGYKHMSLALNRTGRDIVYSCEWPLYMWPFQKPNYTEIRQYCNHWRNFADIDDSWKSIKSILDWTSRNQERIVDVAGPGGWNDPDMLVIGNFGLSWDQQVTQMALWAIMAAPLFMSNDLRHISPQAKALLQDKDVIAINQDPLGKQGYQLRKGDNFEVWERPLSGDAWAVAIINRQEIGGPRSYTIPVASLGKGVACNPACFITQLLPVKRQLGFYNWTSRLKSHINPTGTVLLQLENTMQMSLKDLL | + (0.5 to 1.5 relative activity over Rd4BB (SEQ ID NO: 15)) | + (0.5 to 1.5 relative activity over Rd4BB (SEQ ID NO: 15)) | + (0.5 to 1.5 relative activity over Rd4BB (SEQ ID NO: 15))
